According to the supplement of paper PMC7877785:
± gives the uncertainty stated by the source.

Test: self-splicing fitness, log relative to wild type (ln ratio); higher = more splicing; Tetrahymena group I intron in knt gene, E. coli kanamycin selection, DiMSum; sequences stand for … in CUCUCU…GGAGGGAAAAGUUAUCAGGCAUGCACCUGGUAGCUAGUCUUUAAACCAAUAGAUUGCAUCGGUUUAAAAGGCAAGACCGUCAAAUUGCGGGAAAGGGGUCAACAGCCGUUCAGUACCAAGUCUCAGGGGAAACUUUGAGAUGGCCUUGCAAAGGGUAUGGUAAUAAGCUGACGGACAUGGUCCUAACCACGCAGCCAAGUCCUAAGUCAACAGAUCUUCUGUUGAUAUGGAUGCAGUUCACAGACUAAAUGUCGGUCGGGGAAGAUGUAUUCUUCUCAUAAGAUAUAGUCGGACCUCUCCUUAAUGGGAGCUAGCGGAUGAAGUGAUGCAACACUGGAGCCGCUGGGAACUAAUUUGUAUGCGAAAGUAUAUUGAUUAGUUUUGGAGUACUCGUGGUCG
Method in brief: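 Library with all eight P1ex-region intron nucleotides randomised, intron inside the knt kanamycin-resistance gene on pET-22b(+), in E. coli BL21(DE3). Cells grew overnight at 37°C or 30°C on LB agar with or without 25 μg/mL kanamycin (plus 100 μg/mL carbenicillin, 50 μM IPTG, 0.2% rhamnose), in six replicate transformations. Pooled colonies were amplicon-sequenced on Illumina HiSeq 2500. DiMSum fitness is the error-weighted combination of wild-type-normalised replicate fold changes, kanamycin versus none.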

Row | Sequence | self-splicing fitness (ln) (30 °C) | self-splicing fitness (ln) (37 °C)
1 | AGCUAGCAAUAUUACGGCAA | -0.629 ± 0.081 | -0.284 ± 0.097
2 | AGCUAGCAAUAUUACGGGAG | -1.59 ± 0.13 | -2.54 ± 0.19
3 | AGCUAGCAAUAUUACGGGAU | -2.04 ± 0.11 | -1.49 ± 0.13
4 | AGCUAGCAAUAUUACGGGCC | -3.59 ± 0.26 | -2.51 ± 0.24
5 | AGCUAGCAAUAUUACGGUAG | -3.91 ± 0.27 | -3.18 ± 0.23
6 | AGCUAGCAAUAUUACGGUCC | -0.52 ± 0.1 | -0.0902 ± 0.14
7 | AGCUAGCAAUAUUACGGUUG | -1.95 ± 0.075 | -1.37 ± 0.11
8 | AGCUAGCAAUAUUACGUAGC | -1.84 ± 0.12 | -2.46 ± 0.25
9 | AGCUAGCAAUAUUACGUAUC | -3.55 ± 0.18 | -3.09 ± 0.24
10 | AGCUAGCAAUAUUACGUCAA | -4.05 ± 0.41 | -2 ± 0.16
11 | AGCUAGCAAUAUUACGUCCU | -0.19 ± 0.083 | 0.188 ± 0.11
12 | AGCUAGCAAUAUUACGUUCA | -1.59 ± 0.12 | -0.979 ± 0.15
13 | AGGAAGCAAUAUUACGAAAA | – | -2.42 ± 0.41
14 | AGGAAGCAAUAUUACGAAGG | -2.92 ± 0.28 | -2.8 ± 0.38
15 | AGGAAGCAAUAUUACGACCC | -0.677 ± 0.23 | -1.73 ± 0.26
16 | AGGAAGCAAUAUUACGAGAA | – | -1.39 ± 0.32
17 | AGGAAGCAAUAUUACGCACG | -0.986 ± 0.15 | -1.23 ± 0.18
18 | AGGAAGCAAUAUUACGCAUU | -3.7 ± 0.35 | -2.13 ± 0.26
19 | AGGAAGCAAUAUUACGCCAA | -1.65 ± 0.35 | -1.5 ± 0.31
20 | AGGAAGCAAUAUUACGCCAG | -2.89 ± 0.18 | -1.81 ± 0.22
21 | AGGAAGCAAUAUUACGCCCU | -2.95 ± 0.33 | –
22 | AGGAAGCAAUAUUACGGAAU | -2.88 ± 0.22 | -2.14 ± 0.3
23 | AGGAAGCAAUAUUACGGCAC | -1.55 ± 0.14 | -0.99 ± 0.14
24 | AGGAAGCAAUAUUACGGCCG | -0.634 ± 0.12 | -0.462 ± 0.19
25 | AGGAAGCAAUAUUACGGCCU | -2.44 ± 0.37 | -1.5 ± 0.3

Row | Sequence | self-splicing fitness (ln) (30 °C) | self-splicing fitness (ln) (37 °C)
26 | AGGAAGCAAUAUUACGGCUC | -1.07 ± 0.14 | -0.713 ± 0.19
27 | AGGAAGCAAUAUUACGGUUC | -2.78 ± 0.21 | -2.24 ± 0.2
28 | AGGAAGCAAUAUUACGUCUA | -0.335 ± 0.092 | -0.143 ± 0.1
29 | AGGAAGCAAUAUUACGUCUU | -2.07 ± 0.062 | -1.59 ± 0.08
30 | AGGAAGCAAUAUUACGUGCC | -1.72 ± 0.22 | -0.175 ± 0.23
31 | AGGAAGCAAUAUUACGUUUG | -3.55 ± 0.17 | -2.48 ± 0.19
32 | AGGCAGCAAUAUUACGAAAA | -3.77 ± 0.25 | -2.26 ± 0.15
33 | AGGCAGCAAUAUUACGAAAC | -3.58 ± 0.22 | -1.8 ± 0.19
34 | AGGCAGCAAUAUUACGAACU | 0.174 ± 0.095 | 0.719 ± 0.12
35 | AGGCAGCAAUAUUACGACAU | -0.21 ± 0.012 | -0.101 ± 0.032
36 | AGGCAGCAAUAUUACGAUAG | -3.08 ± 0.34 | -2.15 ± 0.36
37 | AGGCAGCAAUAUUACGAUGG | -3.56 ± 0.19 | -2.44 ± 0.22
38 | AGGCAGCAAUAUUACGAUUA | -1.12 ± 0.1 | -0.936 ± 0.095
39 | AGGCAGCAAUAUUACGCAGA | -1.37 ± 0.12 | -0.754 ± 0.11
40 | AGGCAGCAAUAUUACGCGCU | -3.04 ± 0.15 | -1.03 ± 0.1
41 | AGGCAGCAAUAUUACGCGUC | -3.34 ± 0.3 | -2.54 ± 0.3
42 | AGGCAGCAAUAUUACGCUUA | -0.31 ± 0.1 | -0.299 ± 0.099
43 | AGGCAGCAAUAUUACGGAAG | -2.92 ± 0.13 | -1.98 ± 0.15
44 | AGGCAGCAAUAUUACGGAGA | -2.91 ± 0.14 | -2.61 ± 0.17
45 | AGGCAGCAAUAUUACGGCAC | -0.991 ± 0.085 | -0.533 ± 0.13
46 | AGGCAGCAAUAUUACGGCAU | -0.346 ± 0.062 | 0.15 ± 0.09
47 | AGGCAGCAAUAUUACGUAAG | -1.77 ± 0.13 | -0.486 ± 0.17
48 | AGGCAGCAAUAUUACGUAUG | -3.27 ± 0.27 | -1.53 ± 0.15
49 | AGGCAGCAAUAUUACGUCCA | -0.459 ± 0.051 | 0.0124 ± 0.078
50 | AGGCAGCAAUAUUACGUCCC | – | 0.266 ± 0.3

Row | Sequence | self-splicing fitness (ln) (30 °C) | self-splicing fitness (ln) (37 °C)
51 | AGGCAGCAAUAUUACGUCUA | -0.469 ± 0.081 | 0.262 ± 0.091
52 | AGGCAGCAAUAUUACGUGAG | -0.654 ± 0.066 | -0.526 ± 0.09
53 | AGGCAGCAAUAUUACGUGGA | -4.02 ± 0.26 | -2.6 ± 0.14
54 | AGGCAGCAAUAUUACGUUCU | -1.86 ± 0.08 | -0.817 ± 0.09
55 | AGGGAGCAAUAUUACGAACA | -3.22 ± 0.45 | -1.72 ± 0.31
56 | AGGGAGCAAUAUUACGAAUC | – | -2.43 ± 0.29
57 | AGGGAGCAAUAUUACGACAU | -2.607 ± 0.025 | -2.17 ± 0.041
58 | AGGGAGCAAUAUUACGACUG | -2.15 ± 0.24 | 0.0208 ± 0.21
59 | AGGGAGCAAUAUUACGAGGG | – | -2.2 ± 0.5
60 | AGGGAGCAAUAUUACGAGUU | -4.48 ± 0.46 | -1.45 ± 0.19
61 | AGGGAGCAAUAUUACGAUGA | -3.54 ± 0.37 | -2.7 ± 0.41
62 | AGGGAGCAAUAUUACGAUUG | -3.9 ± 0.17 | -3.41 ± 0.25
63 | AGGGAGCAAUAUUACGCAGC | -2.92 ± 0.47 | –
64 | AGGGAGCAAUAUUACGCAUU | -3.7 ± 0.37 | –
65 | AGGGAGCAAUAUUACGCCAG | -1.99 ± 0.24 | -2.14 ± 0.34
66 | AGGGAGCAAUAUUACGCUAG | -2.36 ± 0.31 | -0.612 ± 0.41
67 | AGGGAGCAAUAUUACGGCGU | -2.04 ± 0.12 | -1.05 ± 0.11
68 | AGGGAGCAAUAUUACGGUCG | -2.2 ± 0.31 | -2.83 ± 0.48
69 | AGGGAGCAAUAUUACGUCCA | -1.11 ± 0.27 | -0.389 ± 0.33
70 | AGGGAGCAAUAUUACGUCGU | -4.4 ± 0.46 | -2.46 ± 0.33
71 | AGGGAGCAAUAUUACGUCUG | – | -1.73 ± 0.36
72 | AGGGAGCAAUAUUACGUUAA | -3.09 ± 0.48 | -2.66 ± 0.41
73 | AGGGAGCAAUAUUACGUUCC | – | -2.63 ± 0.48
74 | AGGUAGCAAUAUUACGAAAC | -3.37 ± 0.035 | -1.85 ± 0.042
75 | AGGUAGCAAUAUUACGACAG | -1.6 ± 0.017 | -0.956 ± 0.034

Row | Sequence | self-splicing fitness (ln) (30 °C) | self-splicing fitness (ln) (37 °C)
76 | AGGUAGCAAUAUUACGACCU | -3.04 ± 0.031 | -2.42 ± 0.049
77 | AGGUAGCAAUAUUACGACUA | -0.0242 ± 0.016 | 0.141 ± 0.034
78 | AGGUAGCAAUAUUACGAGCC | -0.991 ± 0.021 | -0.862 ± 0.037
79 | AGGUAGCAAUAUUACGAUAG | -3.728 ± 0.035 | -2.72 ± 0.045
80 | AGGUAGCAAUAUUACGCACA | -0.467 ± 0.017 | 0.0312 ± 0.034
81 | AGGUAGCAAUAUUACGCACG | -0.782 ± 0.016 | -0.31 ± 0.035
82 | AGGUAGCAAUAUUACGCAUA | -1.71 ± 0.019 | -0.787 ± 0.034
83 | AGGUAGCAAUAUUACGCGUC | -2.763 ± 0.023 | -1.57 ± 0.037
84 | AGGUAGCAAUAUUACGCUCA | -0.609 ± 0.017 | -0.196 ± 0.035
85 | AGGUAGCAAUAUUACGCUUC | -3.52 ± 0.036 | -2.83 ± 0.054
86 | AGGUAGCAAUAUUACGGCUC | -0.672 ± 0.017 | -0.185 ± 0.036
87 | AGGUAGCAAUAUUACGGGCU | -0.801 ± 0.016 | -0.848 ± 0.035
88 | AGGUAGCAAUAUUACGGGGC | -3.748 ± 0.033 | -2.96 ± 0.043
89 | AGGUAGCAAUAUUACGUGGG | -3.908 ± 0.027 | -2.98 ± 0.039
90 | AGGUAGCAAUAUUACGUGUC | -3.313 ± 0.024 | -2.07 ± 0.037
91 | AGGUAGCAAUAUUACGUGUU | -2.894 ± 0.016 | -1.6 ± 0.034
92 | AGGUAGCAAUAUUACGUUUG | -3.578 ± 0.024 | -2.55 ± 0.039
93 | AGUAAGCAAUAUUACGAAGU | -1.75 ± 0.24 | -0.18 ± 0.27
94 | AGUAAGCAAUAUUACGACAU | -0.346 ± 0.013 | -0.078 ± 0.033
95 | AGUAAGCAAUAUUACGACCU | 0.329 ± 0.11 | 0.451 ± 0.14
96 | AGUAAGCAAUAUUACGACGC | -0.403 ± 0.15 | 0.541 ± 0.17
97 | AGUAAGCAAUAUUACGACUC | -1.88 ± 0.13 | -0.797 ± 0.14
98 | AGUAAGCAAUAUUACGAGGG | -3.06 ± 0.18 | -2.87 ± 0.28
